For this assay, the target named is HLA-A*02:01 (Homo sapiens, UniProt P04439, D140Y/D185E/D98H/E176V/E277Q/G131W/G231S/I119V/I121R/I166T/I218V/L300P/L318F/N151K/N90K/P208A/P217A/Q86G/Q94H/R138H/R169H/T345S). The assay is described as follows: MHC binding assay (UV-ligand exchange, β2m ELISA, peptide exchange yield). As to conditions: MHC class I binding score; binding to HLA-A*02:01 ranged by peptide exchange yield (UV-ligand exchange, β2m ELISA). The essentials:
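Binding is expressed as peptide exchange yield: stabilized MHC complexes were quantified by β2m ELISA, with a 450 nm TMB read-out on streptavidin-coated plates. Complexes came from UV-ligand exchange, where UV irradiation cleaves a photolabile peptide so the candidate peptide can load.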
For orientation: An ELISA detects its analyte on a solid surface through an enzyme-linked reagent.

The values that follow come from US20170037111A1, “Novel peptides and combination of peptides for use in immunotherapy against ovarian cancer and other cancers” (immatics biotechnologies GmbH, priority 2015, published 2017).

As for “222 (NLIENVQRL; listed as Homo sapiens) [compound 222]”, the Peptide exchange entry is listed as “″++″ (≧20% = ++)”.

With “223 (ALLENIALYL; listed as Homo sapiens) [compound 223]”, the Peptide exchange result is “″+++″ (≧50% = +++)”.

On to “224 (TLIDAQWVL; listed as Homo sapiens) [compound 224]”, for which the Peptide exchange entry was “″+++″ (≧50% = +++)”.

Regarding “225 (SLLKVLPAL; listed as Homo sapiens) [compound 225]”, the Peptide exchange entry was “″+++″ (≧50% = +++)”.

As for “226 (MLYVVPIYL; listed as Homo sapiens) [compound 226]”, the Peptide exchange result was “″++″ (≧20% = ++)”.

With “227 (ALMNTLLYL; listed as Homo sapiens) [compound 227]”, the Peptide exchange entry was “″++″ (≧20% = ++)”.

Regarding “228 (AMQEYIAVV; listed as Homo sapiens) [compound 228]”, the Peptide exchange result is “″++″ (≧20% = ++)”.

Regarding “229 (RLPGPLGTV; listed as Homo sapiens) [compound 229]”, the Peptide exchange result is “″++″ (≧20% = ++)”.

For the substance “230 (ILVDWLVEV; listed as Homo sapiens) [compound 230]”, the Peptide exchange entry is given as “″+″ (≧10% = +)”.

Regarding “231 (FLSPQQPPLLL; listed as Homo sapiens) [compound 231]”, the Peptide exchange entry is “″++″ (≧20% = ++)”.

Take “232 (ALLEAQDVELYL; listed as Homo sapiens) [compound 232]”: the Peptide exchange entry is listed as “″++″ (≧20% = ++)”.

In the case of “233 (VLSETLYEL; listed as Homo sapiens) [compound 233]”, the Peptide exchange entry was “″++″ (≧20% = ++)”.

For the substance “234 (ALMEDTGRQML; listed as Homo sapiens) [compound 234]”, the Peptide exchange result is on record as “″++″ (≧20% = ++)”.

Turning to “235 (YLNDLHEVLL; listed as Homo sapiens) [compound 235]”, the Peptide exchange result is given as “″++++″ (≧75% = ++++)”.

In the case of “236 (GLLEAKVSL; listed as Homo sapiens) [compound 236]”, the Peptide exchange entry was “″+++″ (≧50% = +++)”.

Take “237 (ALLEASGTLLL; listed as Homo sapiens) [compound 237]”: the Peptide exchange entry was “″++++″ (≧75% = ++++)”.

“238 (YLISFQTHI; listed as Homo sapiens) [compound 238]”: the Peptide exchange entry is “″+++″ (≧50% = +++)”.

Take “239 (AAFAGKLLSV; listed as Homo sapiens) [compound 239]”: the Peptide exchange result is given as “″+++″ (≧50% = +++)”.

With “240 (ILLEQAFYL; listed as Homo sapiens) [compound 240]”, the Peptide exchange result is “″+++″ (≧50% = +++)”.

Turning to “241 (SLVEVNPAYSV; listed as Homo sapiens) [compound 241]”, the Peptide exchange entry is “″+++″ (≧50% = +++)”.

Regarding “243 (LLLNELPSV; listed as Homo sapiens) [compound 243]”, the Peptide exchange entry is “″+++″ (≧50% = +++)”.

Take “244 (SLFGGTEITI; listed as Homo sapiens) [compound 244]”: the Peptide exchange entry is on record as “″+++″ (≧50% = +++)”.

For the substance “245 (SMIDDLLGV; listed as Homo sapiens) [compound 245]”, the Peptide exchange entry is listed as “″+++″ (≧50% = +++)”.

Regarding “246 (LLWEVVSQL; listed as Homo sapiens) [compound 246]”, the Peptide exchange result was “″+++″ (≧50% = +++)”.

Consider “248 (FLFPNQYVDV; listed as Homo sapiens) [compound 248]”, for which the Peptide exchange result is “″+++″ (≧50% = +++)”.

Regarding “249 (LLDGFLVNV; listed as Homo sapiens) [compound 249]”, the Peptide exchange result is on record as “″+++″ (≧50% = +++)”.

Consider “250 (ALSEEGLLVYL; listed as Homo sapiens) [compound 250]”, for which the Peptide exchange entry was “″+++″ (≧50% = +++)”.

For the substance “251 (ALYTGFSILV; listed as Homo sapiens) [compound 251]”, the Peptide exchange result was “″++″ (≧20% = ++)”.

For “252 (LLIGTDVSL; listed as Homo sapiens) [compound 252]”, the Peptide exchange entry is listed as “″+++″ (≧50% = +++)”.
